A short description of this data set: label from the status in PepcDB records.
As for “MDEKLVKEVIFSFREVQRKTHHVLAEEAANREITTTQLLAIRELQKESDLTLGELAERMKLGKSTVSGIVDRLVKAGFLKRTRNESNRRALSLELTEKGATKAAETYHVFFNRLEPILEIGEERLKEMLEMHQEIITILEREGARD”, the protein production entry is listed as “failed”. As for “MAILLALIPIMMIFICLFLFKQTSLRSSLIAYVVSVGIVLLSPMFQLGISETVHATIKGSLICFIVGYVLFFGIFLFHLMNKMGYIDQVARFLEEVTHDRLLQMLLMCFGICPLIESVSGFGIGFMVAAPIFLSLGYKPFQAVLLSFIGLLASSWGAMATGTIIGSQLINMPLTTLGTNTALLSIPMFAYFVILSLHVVGGWQAVIEKWKEGIGFFLLFSLGIYLSNAYVSVELAGILSSIVTITFGFLIIKLKGKSEQNLMSEHAAATEREVSIIKIISPYIFLTVCILLSRLVPALHDVFRSYAVLDLKSFSYKLEMLYSPGFWLGMTCLFTIIFFRIPSNIIKQSLSQTIKQWIPFAITTTMFIAISELMGASGMHSLLAKTAGETFGTFFVFVAPFIGGIGGFLTGSNAGSNAMFIKLQMQTAQNVALPWQYVTTLQNTASSVATIACPSRITLGAYLCNIPYRENELLKKTTLMIFGAVLLIVVEVIFWYMLRN”, the protein production entry is recorded as “failed”. Next, “MMEMITIKPGKITVQANPNMPKEVAELFRKQHYEIVGRHSGVKLCHWLKKSLTEGRFCYKQKFYGIHSHRCLQMTPVLAWCTHNCIFCWRPMENFLGTELPQPWDDPAFIVEESIKAQRKLLIGYKGNPKVDKKKFEEAWNPTHAAISLSGEPMLYPYMGDLVEEFHKRGFTTFIVTNGTIPERLEEMIKEDKLPTQLYVSITAPDIETYNSVNIPMIPDGWERILRFLELMRDLPTRTVVRLTLVKGENMHSPEKYAKLILKARPMFVEAKAYMFVGYSRNRLTINNMPSHQDIREFAEALVKHLPGYHIEDEYEPSRVVLIMRDDVDPQGTGVEGRFIKH”: “not failed”; “MKKRFCFVIITLLLIFILGSCNKVTSIRRLQELEEGVSNPNTEAELKDAIRKYEKRVDDIMIAEERIGIWYKILGSRYMDQKMYKKALKAFQSALEYYPENQNLFYQAGLAASLTAKNSLDFELTGTDIEKKRYFDLAVSAYKRALEIDPKHAKAVYALSVLYIFELNRPTEAIPILEKITEWEKKPIDHLFLLGAAYYMTGENEKAIAVYERIIEISSSAEKKAKAESNIREIRSSGGR”: “failed”.

As to “MSPTRAQRLEGLERIAYCSDVKLFFLVSGSRMFLLLLMLFLRVALPHIYGTELLWDSGTLLYDDMNSTWSLLNFPRSWDGVHFFHVAKHGYSHENVCAFFPLVPFIVRTVSWLNDVLLPEFLTAVPVTFQVALLNVAMGGAAAVCLRRITILTLLSGSHGVDYTNKKDKAMSMTSGTWLDSLPLPPPYYRHEVTVKEHLNARLWKEVGATVLMWMLSPTAVFSVVLYTESVFSFATFLGVYMLIVSPQGKWRTAAAEAGAVLCFAVAGCARSNATTYIGFVLYPVFLQVFFFDTYRKRYAKRYGVTSPIRRWPSLARCVIVLIEVVIIITPYLGLNYLCYSRFVPLWDDMSRAAIGGRFWAFYGWMQKRYWNVGFLQSYRWGNAPNVLISAPIMFFTVRGFVLFIVQPALARSMETESNISKEYQEPRSDCREDRCGNKKQRLFSIYKLMENLVQSSNIICLLVILAFGATMAHVNVVNRLVMSSPALYWLWGRQFVCDPWGGNTVVMVRIFLLWNCIGALFVPNGLPWT”, the protein production entry is listed as “failed”. For the sequence “RSTRQQAGREAEAFALQFLQQQGLRLIEQNWLCKRGELDLVMLDGDTVVFVEVRYRRHCGWGGAVESVDFRKQGKLVTAAQLFLQQVSCWADYPCRFDVIAIEGSPGSFD”, the protein production result is listed as “failed”. Turning to “MATKAIVVEGGAMRGVFASGVLDAFLERDYKPFDFAIGVSAGASNLIGYLTDYPHRSINVITKLATSKRFFDPTRFLKGGDLIDVKWLFEESNRLYPVDEKKLFEGIPFFAATTNVDTGKADYYRVTRENFHHAIEATTALPIAYKHTPCFSGGCYTDGGVADSIPVREAYRRGARDITVVLSHPLNYSKKPVKNTWLMNKLFAEHPKMAEAMLHRSENYNESLEFIRNPPQGTRVRVIAPPDEFHVQRLSMRQSVLLEGYEMGLQEGRTHITNLSGGYGLSRENCHFCL”, the protein production result is given as “failed”.

As for “MTAVFRNTVLVRFKHCDAAGIVFYPRYFEMLNDFIEDWFAQALDWPFDAMHGAGQAGVPTADLHCRFVAPSRLGETLTRELRVVKLGQSSFTVQVRFMGPDSGLRLEVTQRLVCVDTDKIAPRPLPDPVRQAMATYVDETLAATGSPGL”, the protein production entry is recorded as “not failed”. Next, “MEIRTLALKTPEGQPFTMWIYQHDQFTLFPDDRLWPLALIFPGGGFAGYSEREVEAVALKFIAKGYQAAVVKYNLTSDGPFYPTAATIGLAALSYVKRHAQELNADFDHVVVSGFSAGGHLVAVMTALGAQSEFLNNHGFEETKLVPFAQILSYPVIDLTMGFPTSQHEMMAVTTDESYWHAQELVTSQTPPTFIWATRTDELVPVVNSLVYLAALGEHNVPFESHIYAAGVHGLAFGDLADSRYHHPEDVVPRVQNWFPMALGWLRTLYASKNSTEILEHHHHHH”: “failed”; “MPRPLSHRNLPMTPQGHCDSRFAPLAEAFARLFDNPQERGAALCLEVGGETVVDLWGGVADKDGEQPWQRDTILNLFSCTKTFTAVAVLQLVAEGKLELDAPVAHYWPEFAAAGKAAISVRQLLCHRAGLPALREQMPPEALYDWQAMTTALAAEEPWWTPGEAHGYAPITYGWLLGEVIRRVDGREPGEAIVARTAAPLGLDFHVGLDDSQFGRVAHMARSKGSLGDAAAQRMLKTMMSEPLALTTRAFTNPPSILTSTNKPEWRRMQQPAANGHGNARALAGFYSGLLQGRLLEDELLGQLAHEHAVGEDRTLLTRTRFGLGTMLDQPGVANATYGLGPKAFGHPGAGGSIGFADPERDLAFSFVSNALGPYVLMDPRAQQLARVAGECL”: “failed”. With “MLFTMMVSLYTSRVVLATLGVEDFGIYNVVGGVVTMFAIISTSLSSAISRFITIELGKGDLRRLKTVFSTAVVIQFLMALVVVILAELIGVWFLNNKMNIPEVRMNAANWVLQFSIFTFGVNLICIPFNALIIAHERMSAFAYVSILEVSLKLLIVYLLVLMSVDKLIVYGALLLVVAIVITFAYFIYCRRHFKECKCFCRIDRFLLKRMLSFSGWNFIGASSAILRDQGVNIAINLFCGPTVNAARGMAVQVNHAINSFAQNFMTALNPQITKSFAVGDSKYMFTLIFQGARLSFYMLLFLSLPVLMSTEYILSIWLKIVPDYTIIFVRLVLIFAMCESISNPLITAMLATGSIRNYQIVVGGMQMMNFPISYILLERGYAPEITLYVAIGISLCCLALRLFMLRSMIQLPVRSYMKNVFFNICAVTIFSVAIPYLISLRLQSSFYSFLILSFSCIICSFMAIFFVGCKASERVFVVDQVRKLIKNNL” the entry was “failed”. As to “MLKKLIEKVKSLTSVIKIVFFISVLVLIIVEMIHLKRTISVEQLKSVFGQLSPMNLFLIILVGVIAVLPTTGYDFVLNGLLRTDKSKRYILQTSWCINTFNNLSGFGGLIDIGLRMAFYGKKGQEKSDLREVTRFLPYLISGLSFISVIALIMSHIFHAKASVDYYYLVLIGASMYFPVIYWISGHKGSHYFGDMPSSTRIKLGVVSFFEWGCAAAAFIIIGYLMGIHLPVYKILPLFCIGCAVGIVSLIPGGLGSFELVLFTGFAAEGLPKETVVAWLLLYRLAYYIIPFFAGIYFFIHYLGSQINQRYENVPKELVSTVLQTMVSHLMRILGAFLIFSTAFFENITYIMWLQKLGLDPLQEQMLWQFPGLLLGVCFILLARTIDQKVKNAFPIAIIWITLTLFYLNLGHISWRLSFWFILLLLGLLVIKPTLYKKQFIYSWEERIKDGIIIVSLMGVLFYIAGLLFPIRAHITGGSIERLHYIIAWEPIALATLILTLVYLCLVKILQGKSCQIGDVFNVDRYKKLLQAYGGSSDSGLAFLNDKRLYWYQKNGEDCVAFQFVIVNNKCLIMGEPAGDDTYIREAIESFIDDADKLDYDLVFYSIGQKLTLLLHEYGFDFMKVGEDALVNLETFTLKGNKYKPFRNALNRVEKDGFYFEVVQSPHSQELLNSLEEISNTWLEGRPEKGFSLGYFNKDYFQQAPIALVKNAEHEVVAFANIMPNYEKSIISIDLMRHDKQKIPNGVMDFLFLSLFSYYQEKGYHYFDLGMAPLSGVGRVETSFAKERMAYLVYHFGSHFYSFNGLHKYKKKFTPLWSERYISCSRSSWLICAICALLMEDSKIKIVK”, the protein production result was “failed”. Next, “MANWLNQLQSLLGQSSSSTSSSADQGLGKLLVSGALGGLAGLLVANKSARKLLTKYGTNALLVGGGAVAGTVLWNKYKDKIRAAHQDEPQFGAQSTPLDERTERLILALVFAAKSDGHIDANERAAIDQQLREAGVEEQGRVLIEQAIEQPLDPQRLATGVRNEEEALEIYFLSCAAIDIDHFMERSYLNALGDALKIPQDVREGIERDLEQQKRTLAE”: “failed”. Next, “MSHVSLQEFLKTEPDGTLEVVAEQYNTTLLEVVRNLPSSTVVPGDKFDTVWDTVCEWGNVTTLVHTADVILEFSGELPSGFHRHGYFNLRGKHGMSGHIKAENCTHIALIERKFMGMDTASILFFNKEGSAMLKIFLGRDDHRQLLSEQVSAFHTLAASLKEHA”: “not failed”; “MSVAFVPDWLRGKAEVNQETIQRLLEENDQLIRCIVEYQNKGRGNECVQYQHVLHRNLIYLATIADASPTSTSKAME”: “failed”.

On to “MDDIFTQCREGNAVAVRLWLDNTENDLNQGDDHGFSPLHWACREGRSAVVEMLIMRGARINVMNRGDDTPLHLAASHGHRDIVQKLLQYKADINAVNEHGNVPLHYACFWGQDQVAEDLVANGALVSICNKYGEMPVDKAKAPLRELLRERAEKMGQNLNRIPYKDTFWKGTTRTRPRNGTLNKHSGIDFKQLNFLTKLNENHSGELWKGRWQGNDIVVKVLKVRDWSTRKSRDFNEECPRLRIFSHPNVLPVLGACQSPPAPHPTLITHWMPYGSLYNVLHEGTNFVVDQSQAVKFALDMARGMAFLHTLEPLIPRHALNSRSVMIDEDMTARISMADVKFSFQCPGRMYAPAWVAPEALQKKPEDTNRRSADMWSFAVLLWELVTREVPFADLSNMEIGMKVALEGLRPTIPPGISPHVCKLMKICMNEDPAKRPKFDMIVPILEKMQDK”, for which the protein production entry is on record as “failed”. In the case of “MRISAKKPRPRPIFALCAPYPEAQPQEAEVRVRTSILAFVLAAVSTIAGAQDSGLTSLETTDAGRSWLAVGRLDIDGTGFCTGALIAPDLVLTAAHCLYDKTTGQRIDPARIEFLAGWRRGRASAYRRVARAVHHPDYLYEGAVTAERVRNDLALLKLSQPIRNTTVVPFETGNRPMRGDAVQVVSYAHDRAEAPSLQEACAVMARQQGVLVMSCDVDFGASGSPVFSLSDSTPRIVSVVSAKAEVDGARVALGTSLDDTLTFLMGELDSHKRAEIPTVPRVNRLSASGQGSASGAKFVRP”, the protein production result is on record as “failed”. With “MEKADIEAIFARSRFISAMNLEILDIDHAGSRFSVRMPLQDTYERGAPGTKQFHGGALAALIDVVGDFAIGMLVGGGVPTMNLRIDYLRPAVGDYVDGVAVVRKAGKSAAVVDIDILCPAGKLVAIGRGTYVPITGLEHHHHHH” the entry was “failed”; with “MIKAYFGAETFTLNKDFAYILVIGTTDVSLIPGLTIAGATPELTHFTPAADAEYVILGKCKSINTIPVSPTGIPTPALLTRASLSFTKSLKIVVNAGSRITPKIPYIDLQGEPGKDIRKQALSIEKVNIIIENGIKLGEELSNEYELIMIGESIPAGTTTAMATLLALGYDAMDKVSSASPDNPKELKRKVVEEALRNLPTDPLQRLAKVSDPVLLGVAGISLGFRGKILLAGGTQMTAAAAIVNEFDKSKLKDIIIGTTKWIVEDKSADMLSLAKQVGVKVLASMLDLSISIHEGIRTYEKGYVKEGVGAGGSTIMAFIRGVSNSTLVRKIDELYSELVGSNNLNT”, “failed”.

The values above are taken from a protein production outcome set (Wang et al. 2014).
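Also: failed if final PepcDB status was selected cloned or expressed and not failed if soluble or beyond.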
